We go through one substance from publication PMC12396215.

The pKd is −log10 of the Kd, conventionally taken in molar units.

pKd: −log10 of the molar value.

Assay [1] has as its target extracellular domain of EpCAM (EpCAM ECD) (UniProt P16422). The assay can be described thus: fluorescence increase of the DARPin-SiP conjugate on adding the antigen (plate reader); conjugate 500 nM (not pretreated with DTT), EpCAM ECD 1 uM; fold activation = fluorescence at 31 min divided by that just before EpCAM ECD.
Assay [2] has the same target. Nature of the assay: other fluorescence titration; Kd of the probe for EpCAM ECD calculated from the increase of SiP fluorescence (Figure S10).
Assay [3] has the same target. Nature of the assay: fluorescence increase of the DARPin-SiP conjugate on adding the antigen (plate reader); probe pretreated with DTT; probe 500 nM, EpCAM ECD 1 uM.

UniProt P16422, sequence (P16422 24-265): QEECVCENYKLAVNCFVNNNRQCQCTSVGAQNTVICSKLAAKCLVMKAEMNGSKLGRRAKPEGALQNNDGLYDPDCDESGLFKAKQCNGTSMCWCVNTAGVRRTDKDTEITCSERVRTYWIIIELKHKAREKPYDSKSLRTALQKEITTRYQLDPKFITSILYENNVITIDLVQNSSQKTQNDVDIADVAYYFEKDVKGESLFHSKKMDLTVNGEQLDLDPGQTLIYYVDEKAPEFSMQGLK

Consider “Ec1 K152C-5-Gly SiP conjugate (designed binder)”, for which, in assay [1], the fold increase of SiP fluorescence on adding EpCAM ECD was determined as 7 fold. For the same substance, the pKd in assay [2] was 6.62. In addition, in assay [3], the fold activation of SiP fluorescence on adding EpCAM ECD was greater than 12 fold.
